Assay results reported in ChEMBL document CHEMBL1135258, “Substrate spectrum of tyrocidine thioesterase probed with randomized peptide N-acetylcysteamine thioesters” (Bioorg Med Chem Lett, 2002).
Several values for one entry are separate records, joined by “and”; a condition that tells them apart may be missing. Equal values may be shown once.

How the values were obtained:
Conditions in all cases: Brevibacillus brevis
[1] = substrate: CC(=O)NCCSC(=O)[C@H](CC(C)C)NC(=O)[C@H](CCCN)NC(=O)[C@@H](NC(=O)[C@H](Cc1ccc(O)cc1)NC(=O)[C@H](CCC(N)=O)NC(=O)[C@H](CC(N)=O)NC(=O)[C@@H](Cc1ccccc1)NC(=O)[C@H](Cc1ccccc1)NC(=O)[C@H](C)NC(=O)[C@H](N)Cc1ccccc1)C(C)C; test: (§1) Apparent kinetic constant (Km) determined for tyrocidine thioesterase amplified from Bacillus brevis (ATCC8185)
[2] = substrate: CC(=O)NCCSC(=O)[C@H](CC(C)C)NC(=O)[C@H](CCCN)NC(=O)[C@@H](NC(=O)[C@H](Cc1ccc(O)cc1)NC(=O)[C@H](CCC(N)=O)NC(=O)[C@H](CC(C)C)NC(=O)[C@@H](Cc1ccccc1)NC(=O)[C@H](Cc1ccccc1)NC(=O)[C@@H]1CCCN1C(=O)[C@H](N)Cc1ccccc1)C(C)C; test: as §1
[3] = substrate: CC(=O)NCCSC(=O)[C@H](CC(C)C)NC(=O)[C@H](CCCN)NC(=O)[C@@H](NC(=O)[C@H](Cc1ccc(O)cc1)NC(=O)[C@H](CCC(N)=O)NC(=O)[C@H](CC(N)=O)NC(=O)[C@H](CC(=O)O)NC(=O)[C@H](Cc1ccccc1)NC(=O)[C@@H]1CCCN1C(=O)[C@H](N)Cc1ccccc1)C(C)C; test: as §1
[4] = substrate: CC(=O)NCCSC(=O)[C@H](CC(C)C)NC(=O)[C@H](CCCN)NC(=O)[C@@H](NC(=O)[C@H](Cc1ccc(O)cc1)NC(=O)[C@H](CCC(N)=O)NC(=O)[C@H](CC(N)=O)NC(=O)[C@H](Cc1ccccc1)NC(=O)[C@H](Cc1ccccc1)NC(=O)[C@@H]1CCCN1C(=O)[C@H](N)Cc1ccccc1)C(C)C; test: as §1
[5] = substrate: CC(=O)NCCSC(=O)[C@H](CC(C)C)NC(=O)[C@H](CCCN)NC(=O)[C@@H](NC(=O)[C@H](Cc1ccc(O)cc1)NC(=O)[C@H](CCC(N)=O)NC(=O)[C@H](CC(N)=O)NC(=O)[C@H](CCC(N)=O)NC(=O)[C@H](Cc1ccccc1)NC(=O)[C@@H]1CCCN1C(=O)[C@H](N)Cc1ccccc1)C(C)C; test: as §1
[6] = substrate: CC(=O)NCCSC(=O)[C@H](CC(C)C)NC(=O)[C@H](CCCN)NC(=O)[C@@H](NC(=O)[C@H](Cc1ccc(O)cc1)NC(=O)[C@H](CCC(N)=O)NC(=O)[C@H](CC(N)=O)NC(=O)[C@@H](Cc1ccccc1)NC(=O)[C@H](Cc1ccccc1)NC(=O)[C@H](CC(=O)O)NC(=O)[C@H](N)Cc1ccccc1)C(C)C; test: as §1
[7] = substrate: CC(=O)NCCSC(=O)[C@H](CC(C)C)NC(=O)[C@H](CCCN)NC(=O)[C@@H](NC(=O)[C@H](Cc1ccc(O)cc1)NC(=O)[C@H](CCC(N)=O)NC(=O)[C@H](CC(N)=O)NC(=O)[C@H](CCCN=C(N)N)NC(=O)[C@H](Cc1ccccc1)NC(=O)[C@@H]1CCCN1C(=O)[C@H](N)Cc1ccccc1)C(C)C; test: as §1
[8] = substrate: CC(=O)NCCSC(=O)[C@H](CC(C)C)NC(=O)[C@H](CCCN)NC(=O)[C@@H](NC(=O)[C@H](Cc1ccc(O)cc1)NC(=O)[C@H](CCC(N)=O)NC(=O)[C@H](CC(N)=O)NC(=O)[C@@H](NC(=O)[C@H](Cc1ccccc1)NC(=O)[C@@H]1CCCN1C(=O)[C@H](N)Cc1ccccc1)[C@@H](C)O)C(C)C; test: as §1
[9] = substrate: CC(=O)NCCSC(=O)[C@H](CC(C)C)NC(=O)[C@H](CCCN)NC(=O)[C@H](CC(N)=O)NC(=O)[C@H](Cc1ccc(O)cc1)NC(=O)[C@H](CCC(N)=O)NC(=O)[C@H](CC(N)=O)NC(=O)[C@@H](Cc1ccccc1)NC(=O)[C@H](Cc1ccccc1)NC(=O)[C@@H]1CCCN1C(=O)[C@H](N)Cc1ccccc1; test: as §1
[10] = substrate: CC(=O)NCCSC(=O)[C@H](CC(C)C)NC(=O)[C@H](CCCN)NC(=O)[C@@H](NC(=O)[C@H](Cc1ccc(O)cc1)NC(=O)[C@H](CCC(N)=O)NC(=O)[C@H](CC(N)=O)NC(=O)[C@H](C)NC(=O)[C@H](Cc1ccccc1)NC(=O)[C@@H]1CCCN1C(=O)[C@H](N)Cc1ccccc1)C(C)C; test: as §1
[11] = substrate: CC(=O)NCCSC(=O)[C@H](CC(C)C)NC(=O)[C@H](CCCN)NC(=O)[C@@H](NC(=O)[C@H](Cc1ccc(O)cc1)NC(=O)[C@H](CCC(N)=O)NC(=O)[C@H](CC(N)=O)NC(=O)[C@H](Cc1c[nH]cn1)NC(=O)[C@H](Cc1ccccc1)NC(=O)[C@@H]1CCCN1C(=O)[C@H](N)Cc1ccccc1)C(C)C; test: as §1
[12] = substrate: CC(=O)NCCSC(=O)[C@H](CC(C)C)NC(=O)[C@H](CCCN)NC(=O)[C@H](CCC(N)=O)NC(=O)[C@H](Cc1ccc(O)cc1)NC(=O)[C@H](CCC(N)=O)NC(=O)[C@H](CC(N)=O)NC(=O)[C@@H](Cc1ccccc1)NC(=O)[C@H](Cc1ccccc1)NC(=O)[C@@H]1CCCN1C(=O)[C@H](N)Cc1ccccc1; test: as §1
[13] = substrate: CC(=O)NCCSC(=O)[C@H](CC(C)C)NC(=O)[C@H](CCCN)NC(=O)[C@@H](NC(=O)[C@H](Cc1ccc(O)cc1)NC(=O)[C@H](CCC(N)=O)NC(=O)[C@H](CC(N)=O)NC(=O)[C@@H](Cc1ccccc1)NC(=O)[C@H](Cc1ccccc1)NC(=O)[C@@H]1CCCN1C(=O)[C@H](N)Cc1ccccc1)C(C)C; test: as §1
[14] = substrate: CSCC[C@H](NC(=O)[C@H](Cc1ccccc1)NC(=O)[C@@H]1CCCN1C(=O)[C@H](N)Cc1ccccc1)C(=O)N[C@@H](CC(N)=O)C(=O)N[C@@H](CCC(N)=O)C(=O)N[C@@H](Cc1ccc(O)cc1)C(=O)N[C@H](C(=O)N[C@@H](CCCN)C(=O)N[C@@H](CC(C)C)C(=O)SCCNC(C)=O)C(C)C; test: as §1
[15] = substrate: CC[C@@H](C)[C@H](NC(=O)[C@H](CC(N)=O)NC(=O)[C@@H](Cc1ccccc1)NC(=O)[C@H](Cc1ccccc1)NC(=O)[C@@H]1CCCN1C(=O)[C@H](N)Cc1ccccc1)C(=O)N[C@@H](Cc1ccc(O)cc1)C(=O)N[C@H](C(=O)N[C@@H](CCCN)C(=O)N[C@@H](CC(C)C)C(=O)SCCNC(C)=O)C(C)C; test: as §1

B1: Thioesterase GrsT homolog tycF (Brevibacillus brevis), O30412 (protein)
chain: MKLFCFPYAGGLPGIYYSWKSRLPPTFLEIDAFEVRPHIPQPNRDVFLPTSFYELLEDVCDRITPALTETPFAFFGHSMGGLVAFELTRKLMQKGAPLPQHLFLSASRAPHAYGKLAKTYNLPHDEFVEALRKLGGTPDDVLENQELLELFLPILRADFQAVQTYEMNPDLPRQVPVNMTVLYGTEDTIALEDIWAWRDYCQGACQFFPVSGGHFFIHHQTSPILEIIQNVLKEEKTVAIHSSF
Q: B1 was tested. Which Km [1] did it give?
A: 31 µM

Q: What about the Km [2] of the same protein?
A: 42 µM

Q: What about the Km [3] of the same protein?
A: 238 µM

Q: And the Km [4]?
A: 4.8 µM

Q: And the Km [5]?
A: 16 µM

Q: And the Km [6]?
A: 96 µM

Q: And the Km [7]?
A: 24 µM

Q: What about the Km [8] of the same protein?
A: 31 µM

Q: What about the Km [9] of the same protein?
A: 55 µM

Q: And the Km [10]?
A: 19 µM

Q: And the Km [11]?
A: 82 µM

Q: What about the Km [12] of the same protein?
A: 62 µM

Q: And the Km [13]?
A: 13 µM and 9.2 µM

Q: What about the Km [14] of the same protein?
A: 20 µM

Q: And the Km [15]?
A: 82 µM
